The target in assay [1] is T1, SARS-CoV-2 full length spike protein, wild type, expressed on the surface of transiently transfected CHO cells (SARS-CoV-2, UniProt P0DTC2 14-1273).
T1 construct: also called SARS-CoV-2 spike (S) protein; Wild-Type SARS-CoV-2
In words: flow cytometry, CHO cells expressing full-length WT spike. (Flow cytometry measures light scatter and fluorescence of single cells or particles in a stream.)

In assay [2] the target is T2, SARS-CoV-2 full length spike protein (wild type), expressed on the surface of transiently transfected CHO … (SARS-CoV-2, UniProt P0DTC2 14-1273).
T2 construct: also called SARS-CoV-2 spike (S) protein; Wild-Type SARS-CoV-2
Put plainly: flow cytometry, CHO cells with full-length WT SARS-CoV-2 spike.

The target in assay [3] is T3, SARS-CoV-2 spike (S) protein, full length, wild type (SARS-CoV-2, UniProt P0DTC2 14-1208).
T3 construct: also called SARS-CoV-2 full length spike; full-length trimeric SARS-CoV-2 spike protein
In words: multiplexed bead assay, flow cytometry.

For assay [4], the target named is SARS-CoV-2 spike protein on infectious SARS-CoV-2 virus, Italy-INMI1 isolate (SARS-CoV-2, UniProt P0DTC2 14-1273). Put plainly: cell-based or functional assay.
Assay [5] concerns the target T4, SARS-CoV-2 full length spike protein (wild-type), conjugated to optically encoded beads (SARS-CoV-2, UniProt P0DTC2 14-1208).
T4 construct: also called SARS-CoV-2 spike (S) protein; full-length trimeric SARS-CoV-2 spike protein
In words: multiplexed bead flow cytometry, column D.

Assay [6] has as its target T5, SARS-CoV-2 full length spike protein (wild type) (SARS-CoV-2, UniProt P0DTC2 14-1273).
Assay [7] concerns the target T5, SARS-CoV-2 full length spike protein …. In words: flow cytometry, CHO cells expressing full-length wild-type SARS-CoV-2 spike.
Assay [8] has as its target T2, SARS-CoV-2 full length spike protein ….
Assay [9] addresses T6, SARS-CoV-2 full length spike protein (wild type) (SARS-CoV-2, UniProt P0DTC2 14-1208).
T6 construct: also called SARS-CoV-2 spike; S protein
In words: multiplexed bead assay, flow cytometry; columns A, B, D, G, H, I.

B1: antibody 432 (antibody, V domains shown)
VH: QVQLQESGPGLVKPSQTLSLTCTVSGGSISSGGYYWNWIRQHPGKGLEWIGYIYDSGSTYYNPSLKSRLTLSIDTSQNQFSLRRTSVTAADTAVYYCARGRQYDYDRTGLQYYFDYWGQGTLVTVSS
VL: EIVLTQSPGTLSLSPGERATLSCRASQSFSSSYLAWYQQKPGQAPRLLIYGASSRATGIPDRFSGSGSGTDFTLTISRLEPEDFAVYYCQQYGTSSLTFGGGTKVEIK
Take B1: the binding result in [1] is on record as “no binding”.

B2: antibody 474 (antibody, V domains shown)
VH: EVQLVESGGGLVQPGGSLRLSCAASGFTFSSYWMHWVRQAPGKGLVWVSRINSDGSSTSYADSVKGRFTISRDNAKNTLYRQMNSLRAEDTAVYYCALGPLDIVGSYYYYGMDVWGQGTTVTVSS
VL: NFMLTQPHSVSESPGKTVTISCTGSSGSIASNYVQWYQQRPGSAPTTVIYEDNQRPSGVPDRFSGSIDSSSNSASLTISGLKTEDEADYYCQSYDSSNQDVVFGGGTKLTVL
In the case of B2, in assay [2], the binding result is on record as “no binding”.

B3: anti-SARS-CoV-2 antibody 474 (antibody, V domains shown)
VH: B2 VH
VL: B2 VL
In the case of B3, the binding result in assay [3] was “no binding”.

B4: mAb 555 (antibody, V domains shown)
VH: QVQLVQSGAEVKKPGSSVKVSCKASGGTFSNYAISWVRQAPGQGLEWMGRIIPILGIANYAQKFQGRVTITADKSTSTAYMELSSLRSEDTAVYYCARGYYEARHYYYYYAMDVWGQGTAVTVSS
VL: not shown
For B4, the “IC50, live virus neutralization of Italy-INMI1 isolate; Lab 2, plaque reduction” value in assay [4] worked out at 0.05 µg/mL.

B5: antibody 541 (antibody, V domains shown)
VH: QVQLVQSGAEVKKPGASVKVSCKASGYTFTSYYVHWVRQAPGQSLEWMGVISPSTGSTTYAQNFQGRVTMTRDTSTTTVYMELSSLRSEDTAVYYCARDDYYDSTRYFDLWGRGTLVTVSS
VL: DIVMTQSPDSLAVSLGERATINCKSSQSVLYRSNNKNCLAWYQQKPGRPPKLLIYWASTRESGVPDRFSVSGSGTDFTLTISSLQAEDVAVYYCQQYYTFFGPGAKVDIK
For B5, the binding result in [5] is reported as “no binding”.

B6: antibody 296 (antibody, V domains shown)
VH: EVQLVESGGGLVQPGGSLRLSCAGSGFTLSNYWMTWVRQAPGKGLEWVANINQDASRKYYGDSVKGRFSVSRDNAKNSLYLQMNSLTAEDTGFYYCVREELPSTPGSTWGQGTLVTVSS
VL: QSALTQPASVSGSPGQSITISCTGTSSDIGGYNHVSWYQQHPGKAPKLMIYGVSNRPSGVSDRFSGSKSDNTASLTISGLQAEDEADYYCSSPTSRGNKVFGTGTKVTVL
As to B6, the “median fluorescence intensity, fold over isotype control” value in [6] was determined as 1.12 fold over isotype. Besides, the binding result in assay [7] is recorded as “no binding”.

B7: antibody 510 (antibody, V domains shown)
VH: QVQLQESGPGLVKPSQTLSLTCTVSGGSISSGSYYWSWIRQPAGKGLEWIGRIYTSGSTNYNPSLKSRVTISVDTSKNQFSLKLSSVTAADTAVYYCAREGQWLYRFDYWGQGTLVTVSS
VL: QSALTQPASVSGSPGQSITISCTGTSSDVGNYDLVSWYQQHPGKAPKLVIYGVTKRPSGVSNRFSGSKSGNTASLTISGLQAEDEADYYCCSYATGDTSVFGTGTKVTVL
Regarding B7, in assay [5], the binding result is listed as “no binding”.

B8: antibody 434 (antibody, V domains shown)
VH: QVQLVQSGAEVKKPGASVQVSCKASGYTFSDYYIFWVRQAPGQGLEWMGCINPKSGGAIYAQRFQGRVTMTRDTSFNTAYMEMNRLGSDDTAVYYCVTRGPPDIAASGFAWHLDVWGQGTTVTVSS
VL: DIVMTQSPLSLPVTPGEPASISCRSSQSLLSSNGYNYLEWYLQKPGQSPQLLMYLGSNRASGVPDRFSGSGSGTDFTLKINRVEAEDVGVYYCMQALQTPLTFGGGTKVEIK
Take B8: the binding result in assay [2] is recorded as “no binding”.

B9: antibody 450 (antibody, V domains shown)
VH: EVQLVESGGGLVQPGGSLRLSCAASEFTFSSYWMSWVRQAPGKGLEWVANIKQDGSEKYYVDSVKGRFTISRDNAKNSLYLQMNSLRAEDTAVYYCARVGEYSGYDLFFDYWGQGTLVTVSS
VL: NFMLTQPHSVSESPGKTVTISYTGSSGSIASNYVQWYQQRPGSAPTTVIYEDNQRPSGVPDRFSGSIDSSSNSASLTISGLKTEDEADYYCQSYDSSNQGVFGGGTKLTVL
Regarding B9, the binding result in [2] was “no binding”. Also, in assay [8], the “median fluorescence intensity, fold over isotype control” value was found to be 0.85 fold over isotype.

B10: antibody 514 (antibody, V domains shown)
VH: EVQLVQSGAEVKKPGATVKISCKVSGYTFTDYYMHWVQQAPGKGLEWMGLVDPEDGETIYAEKFQGRVTITADTSTDTAYMELSSLRSEDTAVYYCATDCKYDILTGHYSAGYYYYGMDVWGQGTTVTVSS
VL: DIQMTQSPSSLSASVGDRVTITCRASQGISNYLAWFQQKPGKAPKSLIYAASSLQSGVPSKFSGSGSGTDFTLTISSLQPEDFATYYCQQYNSYPFTFGGGTKVEIK
B10: the binding result in [5] was “no binding”.

B11: antibody 341 (antibody, V domains shown)
VH: QLQLQESGPGLVKPSETLSLTCTVSGGSISSSSYYWGWIRQPPGKGLEWIGSIYYSGSTYYNPSLKSRVTISVDTSKNQFSLKLSSVTAADTAVYYCARRPLRYFDWLTNFDYWGQGTLVTVSS
VL: EIVLTQSPATLSLSPGERATLSCRASQSVSSYLAWYQQKPGQAPRLLIYDASNRATGIPARFSGSGSGTDFTLTISSLEPEDFAVYYCQQRSNWPITFGQGTRLEIK
For the molecule B11, in assay [9], the binding result is on record as “no binding”.

B12: antibody 290 (antibody, V domains shown)
VH: QVHLVQSGAEVKKPGASVKVSCAASGYTFNNYGVSWVRQAPGQGLEWMGWISASNGNTKYAQNLQGRVTMTTDTSTSTAYMELRSLRSDDTAVYYCARDLVGPTAPNYYYGMDVWGQGTAVTVSS
VL: QSVLTQPPSVSGAPGQRVTISCTGSSSSIGAGYDVHWYQQLPGTAPKLLIYANSNRPSGVPDRLSGSKSGTSASLAITGLQAEDEADYYCQSYDSSLSGYVFGTGTKVTVL
Take B12: in assay [7], the binding result is on record as “no binding”.

B13: antibody 443 (antibody, V domains shown)
VH: QMRLEESGPGLVKPSETLSLTCTVAGGSITSSDYFWGWLRQSPGKGLEWIASTYHGGSIQYHPALKSRVTISVDASKNQISLRLSSVTAADTAVYYCARDRGDDGPMGTYYFDHWGQGALVTVSS
VL: QSVLTQPPSVSGAPGQSVTISCAGSSSNIGAGHDVHWYQQIPGTAPKLLICGNTNRPSGVPERFSGSRSGTSASLAITGLQAEDEAVYYCQSYDPSHVFFGTGTKLTVL
On to B13, for which the binding result in [2] is “no binding”.

Source of the values: patent publication US20210292393A1 (published 2021).
